Laboratory results as given in the supplement of paper PMC12764529.
± gives the half width of the 95% confidence interval.

Test: folding stability dG unfold from chymotrypsin proteolysis; higher = more stable
How it was run: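 Unfolding free energy was derived, per protease or combined, by relating Bayesian-fitted K50 values from sequencing counts to a sequence-predicted unfolded-state K50 and a shared folded-state K50. The underlying digests exposed cysteine-free mini-proteins under 80 residues, in a PA-tagged cDNA display construct, to trypsin and chymotrypsin at 11 threefold-diluted concentrations and to a no-protease condition. A filter kept only designs with AlphaFold2 dimer inter-PAE above 15.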

| Sequence | folding stability dG unfold [kcal/mol] |
| --- | --- |
| KTITIVVKVPSLEEVEALAAELAKELNLPPGAKVEVKVEYDEETGYVVVTVTVTNPNGEKIEIKIVVELPDS [r1_84_TrROS_Hall] | 3.72 ± 0.38 |
| SAGGSAGGSAGGSGMTPIPLEVLERKVTEYDPKNGKITVEALAILPDGTPVKLKFTVELSAGGSAGGSAGGS [r4_184_JUSTAS] | 1.37 ± 0.18 |
| SAGGPDELELVIVFPAEALGTGEGGEPYTAEDIAEAIKKELPKDEVEVEIAEIDEETGEIVVTVKVPSAGGS [r16_284_TrMRF] | 0.449 ± 0.077 |
| SAGGSAGGSAGGMTLEEVKKALEELGIKEENQTVTIELEDGSKVKITVKDGKVVLEVEPSAGGSAGGSAGGS [r10_604_TrROS_Hall] | 2.19 ± 0.1 |
| SAGLKEIAKKLGLSEEKIKIKEIKKKKKVVYDKKTKKKYEKEEIVIKIEIVDPKTKKKYEIEIPLEEIKSAG [r5_517_TrROS_Hall] | 2.63 ± 0.18 |
| SMITIEINVGNKKYTVEIVPEKGIIKITDPNGTPIGEGEIKPDSIDITLTKPNTDETYKFTFPIPPESLPSA [r9_963_JUSTAS] | 3.04 ± 0.12 |
| SAGGSAMVYLVTVTIKSEGKEVRYKEWVESDEPEKLIEKVKKEYPNEEIKVEITPFPSKEEAEKLLSAGGSA [r15_889_JUSTAS] | 2.48 ± 0.042 |
| SAGGSAGAPLVLAEVELDPETGEVRIRVYDPVTGKVYEYTTPGSLADAIREIERETGIPITEVVVASAGGSA [r15_101_TrMRF] | 3.73 ± 0.073 |
| SGMERTPLTPTETVTLTIPPGSLTITPTASPGPLTVTVTVPGSGTPTVVELPVEAPDLDAALAAVVAALQSA [r9_982_JUSTAS] | 1.39 ± 0.078 |
| SMETLEIEITVKVEKDENGKIRKVSVEELKEELEKAGFKITEIEITEVTENTVKIKIKIEKPEEEEEEEESA [r9_225_TrROS_Hall] | 3.26 ± 0.24 |
| SAGGSAGGSKEPIRVDEFEWRKNKDGMDMVQVTFPNNGKDIHLPPEHLDNLEPGDEIPLDDLISAGGSAGGS [r20_3_TrROS] | 0.192 ± 0.17 |
| SANWHRFTIEAWVPVRDPNGKPIRPEQVEEQAERIANELWPRGFPIKDVTVEQHPDGWVRITATIEVPDSAG [r14_470_TrROS] | 3.137 ± 0.022 |
| SAGEIKIEIKKNKNGKLTIRITVKKKDGEEKEIEIEVPENMTAEELAKELEKKGFEITEIKSIEELLKSAGG [r19_263_TrROS_Hall] | 3.83 ± 0.25 |
| SAGGSAGGSAFVWNPDTGTFIQLDPNDGTIEVFEIENDNDGKLEPIGTVEVDPDDPDKGTITSAGGSAGGSA [r18_448_TrROS] | 1.23 ± 0.069 |
| SAGGSAGGSGPMDDPVPPRFSVETSVSPVALPPEFVAYVAAHPEEVDAVYTTTVVVLEEGPAGSAGGSAGGS [r12_196_JUSTAS] | -0.482 ± 0.79 |
| GLEVKVDITVDPVGGGTRIPVTVSVPGRPIAQATADVDPETGVVNLDLGAESEEERKAALEKLKEAGIKLGS [r1_455_JUSTAS] | 1.42 ± 0.054 |

| Sequence | folding stability dG unfold [kcal/mol] |
| --- | --- |
| SAGGSAGGSAGGGSMVTVPVTTESTTTVPPGAPAVEAAPVDPATATVSTTTSSTSLVASSAGGSAGGSAGGS [r10_82_JUSTAS] | 0.534 ± 0.029 |
| SAGGSAGGSYLDPNKVYLVETEVVGDKVVFTLRDPETGETFVLEADASKEVLKPGDRVLALVASAGGSAGGS [r12_525_TrMRF] | 1.97 ± 0.065 |
| SAGGKTIPIWFRVPPGMTPEEAADELADEIANELQQQNGKEIEIKIDDVEPNPNGWNIVRIKIEVDPSAGGS [r8_156_TrROS] | 0.433 ± 0.43 |
| SAGGSAGGSKIEFTVPDNDELIEYIRKWFQDNGGQIKNIKIEPTPPNQVKVEIEINPGDPWFQSAGGSAGGS [r12_647_TrROS] | 2.36 ± 0.077 |
| SAGGMSLHIPLPANNEELAEELAEELRDLYAAIPGTPGEVEVDIEPTPEGGYRLIVRFPDHVDEIPASAGGS [r16_356_TrMRF] | 1.19 ± 0.11 |
| SAGGSAGGSDPEFELVRVEVFPFPTATLVRAVARFPPTDEYVEVELVHFPVPDRVLLRVRLLPSAGGSAGGS [r12_14_TrMRF] | 3.93 ± 0.071 |
| SAGGPLTLEDLKNMPPGEKLEFTFGGYTYEVEIYKNDNGPPYITVKQRDPHDGEPVEEKRVPADDIVSAGGS [r16_763_TrROS] | 1.92 ± 0.026 |
| SAGGSMKPAKKITFTFPDGRKAEIFFYPEEDTIELRIYFPETGTFVEIPVKSPEDLIETLKKLLAESAGGSA [r2_70_TrMRF] | 3.7 ± 0.14 |
| SAGGSAGPLERKVIVRTAPYTSPEEGEAYAEETKLAIASKLPESEKVTVEVTWDPETNTVTATIVSSAGGSA [r15_981_JUSTAS] | 1.14 ± 0.092 |
| SAGEVELKIVLPKEEIEKILEALRKLAEEAGLEVEVEKIEKKEDGYYVITVTVKFKETEKEIKIEIIIPSAG [r5_41_TrROS_Hall] | 2.55 ± 0.12 |
| SAGGSAGGSEEKKIKIKIKIERDPENPNTYRITIEDEETGERYELEITVPPPKPKVFFFPKKKSAGGSAGGS [r12_985_TrROS_Hall] | 2.19 ± 0.12 |
| SAGLKVKIVKAEVKNGYLTLEVEVTGKDGSKKPFKIKIKLKPVPKPKPVFKFTKLPNGEIKVEVFDPSSAGG [r19_172_TrMRF] | 3.212 ± 0.03 |
| SAMILLIKIENKNDGKEFIIEITPNKITIYDKKTGKKYEITVDGNTITIKINGKTYKAKIKEVIPEEELSAG [r14_208_TrROS_Hall] | 3.86 ± 0.096 |
| SATLTFTATLPDGSRVLEVTAEPRPDGTVTIRMRAEFTFAPGVTVTVPATITVPVPPPPALPPDDPRLFSAG [r14_95_TrMRF] | 3.33 ± 0.05 |
| SAGGKPLTVEDAKELAESLAKPLKEELGLGNVKILAAPVEVGGEEGKPAEVRIGFLFDLSEDGEFVGSAGGS [r16_751_TrMRF] | 0.0162 ± 0.16 |
